From PMC8746653, “Biochemical and Structural Analysis of a Glucose-Tolerant β-Glucosidase from the Hemicellulose-Degrading Thermoanaerobacterium saccharolyticum” (Molecules, 2022)

Key:
TsaBgl [1] = biological target: T1, TsaBgl (Thermoanaerobacterium saccharolyticum, UniProt I3VXG7); test: X-ray crystal structure, […] Å; format: binding; settings: Tris from buffer bound at active site, contacts Glu163 and Glu351; crystallised in 0.1 M Tris-HCl pH 7.0
T1 construct: gene Tsac_2208

TsaBgl [2] = biological target: T1, TsaBgl; test: pNPG hydrolysis, pNP release at […] nm, inhibitor titration; format: biochemical; settings: read-out: concentration that reduced the enzyme activity by half
purified protein = substrate: O=[N+]([O-])c1ccc(O[C@@H]2O[C@H](CO)[C@@H](O)[C@H](O)[C@H]2O)cc1; test: purified protein; settings: 100 mM sodium phosphate pH 6.0, 55 °C, 0-10 mM pNPG

NC(CO)(CO)CO [Tris]
X-ray crystal structure, 1.70 Å (TsaBgl [1]): one Tris molecule was bound to the active site
IC50 (TsaBgl [2]): ~10 mM

B1: TsaBgl (Thermoanaerobacterium saccharolyticum JW/SL-YS485) (protein)
chain: MLDFSKDFLFGVATASYQVEGAYNEDGRTMSIWDTFSRQDGKVYKSHNGDVACDHYHLYKDDVKMMKDLGIEAYRFSIAWPRIFPAKGQYNPKGMDFYKRLTDELLKNDIKPFATIYHWDLPQWADDLGGWLNREIVEWYGEYAEKLFSELGGYIKNWITLNEPWCSSFLSYFIGEHAPGHKDLGEALLVSHNLLLSHGKAVEIFRGLNLDDSKIGITLNLNEVFPASDSDDDKVAAQIADGFQNRWFLDPLFKGKYPQDMVEYFGKYAKVDFINDEDLKLISQKLDFLGVNYYTRAVVQKGNDGLLDAVQIDPGNERTEMGWEIYPESLYNILMRLKREYTYDMPLYITENGAAFNDVVEDDGRVHDEKRVEFLKQHFKEAKRFLNDGGNLKGYFVWSLMDNFEWAHGYSKRFGIVYVDYETEKRILKDSALWYKDLISTRTI
Km (purified protein): 360 ± 20 µM
kcat (purified protein): 18.6 s⁻¹
kcat/Km (purified protein): 51000 M⁻¹ s⁻¹
